Data on 15 molecules can be found in paper PMC8287954, “Assembly of higher-order SMN oligomers is essential for metazoan viability and requires an exposed structural motif present in the YG zipper dimer” (Nucleic Acids Research, 2021).

B7: Drosophila melanogaster Gemin2 (natural protein, UniProt Q9VVX0 1-245, looked up)
chain: MQHEPEDQTFQLQALEICEPDSSFDPQKPPESGEEYLMHMFYERKRCPAVVTKRSSKIRNNTGNTTLEMLDNPELPPFKCLLPTPEWRDEQVKSFQAARSQVLVLRKELANNNYDQSGEPPLTSDQEKWKEFCRNQQPLLSTLLHLTQNDLELLLEMLSKWLQDPNTTVDLLHDVWLARWLYATLVCLHLPLEPHVFSTLRYIARTCIHLRNQLKEDEVQRAAPYNLLLTLTVQVFAQNDFKDYI
notes: Drosophila melanogaster Gemin2 (dmGemin2); also called dmGemin2; dmG2; source: E. coli BL21(DE3), purified (Ni-NTA, chitin beads, Superdex 200)

Data set [1] concerns the molecule itself. Briefly: SEC-MALS; Superdex 200 10/300 GL, 0.5 ml/min, room temperature (20°C), 50 mM HEPES-NaOH pH 7.5, 250 mM NaCl, 5 mM DTT; self-association of the SMN•G2 unit, (SMN•G2)n. (In general: In gel filtration, larger molecules generally elute earlier.)
In data set [2] the target is B7. Briefly: SEC; complex reconstituted from separately purified proteins, two molar excess of dmGemin2, HFS tag cut with Ulp1, second Ni-NTA pass, Superdex 200 16/60 at 20°C, 20 mM Na/KPO4 pH 7.0, 300 mM NaCl, 1 mM DTT. The note with it: both partners purified.
Data set [3] deals with the molecule itself. Briefly: AUC; sedimentation velocity, 20 mM HEPES–NaOH pH 7.5, 300 mM NaCl, 0.1 mM TCEP, 0.16–1.0 mg/ml, 40 000 rpm; 25°C and 4°C (smaller species at 4°C).
Data set [4] concerns the molecule itself. Briefly: AUC; sedimentation equilibrium, 4°C, 20 mM Tris-HCl pH7.4, 200 mM NaCl, 5 mM DTT; monomer to dimer.
Data set [5] concerns the molecule itself. Briefly: cross-linking; disulfide cross-linking of single-cysteine MBP-YG box fusions, 5 μM, 20 mM Tris-HCl pH 7.4, 200 mM NaCl, 1 mM EDTA, 10 mM maltose, 160 μM diamide, 1 h, 20°C; non-reducing SDS-PAGE.
Data set [6] deals with the molecule itself. Briefly: SEC-MALS; Superdex 200 10/300 GL, 0.5 ml/min, room temperature (20°C), 50 mM HEPES-NaOH pH 7.5, 250 mM NaCl, 5 mM DTT; self-association of the SMN•G2 unit, (SMN•G2)n. The source holds these as a separate data set.
Data set [7] deals with the molecule itself. Briefly: not stated; shown in Supplementary Figure S2; method not given.

Several values for one entry are separate records, joined by “and”; a condition that tells them apart may be missing. Equal entries are not always repeated.

B1: Schizosaccharomyces pombe SMN•Gemin2 complex (complex)
chain 1: MDQSQKEVWDDSELRNAFETALHEFKKYHSIEAKGGVSDPDSRLDGEKLISAARTEESISKLEEGEQMINQQTETTLEGDTHIQQFADNKGLSDEKPETRAAETHQEFMEVPPPIRGLTYDETYKKLIMSWYYAGYYTGLAEGLAKSEQRKD
chain 2: MPSKRKRNPLQYQTSGSLDEETNQRSAFPQIDNNSASESLEYDIPLDGLDYLATVREEARKLVPFVAARREPETRETIPLRKLEIEAGKKSFDPFLRYLLNIIDKEGERLEQYMESSSLDASILPKNLQQWRVYIEHKAPCWAILAVVDLATVLEILESLSSWLEKDAIDLQSQWIFCFCYKLPELLNGEDISTLRSVLKSLRSTHTSFPALQMSASALQAVLVYRYGQKDLFQT
notes: S. pombe SMN (Smn1p); S. pombe Gemin2; also called spSMN•G2; wild-type Smn1p; source: bacterial co-expression, purified as previously described (24)
For orientation: stoichiometry N means the number of molecules, sites or subunits per partner or assembly. Take B1: the “stoichiometry N” value in data set [1] is 2 and 4.

B2: spSMN(A141Q)•Gemin2 (complex, Schizosaccharomyces pombe)
chain 1: MDQSQKEVWDDSELRNAFETALHEFKKYHSIEAKGGVSDPDSRLDGEKLISAARTEESISKLEEGEQMINQQTETTLEGDTHIQQFADNKGLSDEKPETRAAETHQEFMEVPPPIRGLTYDETYKKLIMSWYYAGYYTGLQEGLAKSEQRKD
chain 2: MPSKRKRNPLQYQTSGSLDEETNQRSAFPQIDNNSASESLEYDIPLDGLDYLATVREEARKLVPFVAARREPETRETIPLRKLEIEAGKKSFDPFLRYLLNIIDKEGERLEQYMESSSLDASILPKNLQQWRVYIEHKAPCWAILAVVDLATVLEILESLSSWLEKDAIDLQSQWIFCFCYKLPELLNGEDISTLRSVLKSLRSTHTSFPALQMSASALQAVLVYRYGQKDLFQT
notes: S. pombe SMN (Smn1p); S. pombe Gemin2; also called spA141Q; source: recombinant; yeast SMN•G2 complexes purified as previously described (24)
For the molecule B2, the binding result in data set [1] was “binds”.

B3: spSMN(A145Q)•Gemin2 (complex, Schizosaccharomyces pombe)
chain 1: MDQSQKEVWDDSELRNAFETALHEFKKYHSIEAKGGVSDPDSRLDGEKLISAARTEESISKLEEGEQMINQQTETTLEGDTHIQQFADNKGLSDEKPETRAAETHQEFMEVPPPIRGLTYDETYKKLIMSWYYAGYYTGLAEGLQKSEQRKD
chain 2: MPSKRKRNPLQYQTSGSLDEETNQRSAFPQIDNNSASESLEYDIPLDGLDYLATVREEARKLVPFVAARREPETRETIPLRKLEIEAGKKSFDPFLRYLLNIIDKEGERLEQYMESSSLDASILPKNLQQWRVYIEHKAPCWAILAVVDLATVLEILESLSSWLEKDAIDLQSQWIFCFCYKLPELLNGEDISTLRSVLKSLRSTHTSFPALQMSASALQAVLVYRYGQKDLFQT
notes: S. pombe SMN (Smn1p); S. pombe Gemin2; also called spA145Q; source: recombinant; yeast SMN•G2 complexes purified as previously described (24)
Regarding B3, the binding result in data set [1] is given as “binds”.

B4: spSMN(Y137H)•Gemin2 (complex, Schizosaccharomyces pombe)
chain 1: MDQSQKEVWDDSELRNAFETALHEFKKYHSIEAKGGVSDPDSRLDGEKLISAARTEESISKLEEGEQMINQQTETTLEGDTHIQQFADNKGLSDEKPETRAAETHQEFMEVPPPIRGLTYDETYKKLIMSWYYAGYHTGLAEGLAKSEQRKD
chain 2: MPSKRKRNPLQYQTSGSLDEETNQRSAFPQIDNNSASESLEYDIPLDGLDYLATVREEARKLVPFVAARREPETRETIPLRKLEIEAGKKSFDPFLRYLLNIIDKEGERLEQYMESSSLDASILPKNLQQWRVYIEHKAPCWAILAVVDLATVLEILESLSSWLEKDAIDLQSQWIFCFCYKLPELLNGEDISTLRSVLKSLRSTHTSFPALQMSASALQAVLVYRYGQKDLFQT
notes: S. pombe SMN (Smn1p); S. pombe Gemin2; also called spY137H; source: recombinant; yeast SMN•G2 complexes purified as previously described (24)
In the case of B4, in data set [1], the binding result is recorded as “binds”.

B5: spSMN(G143V)•Gemin2 (complex, Schizosaccharomyces pombe)
chain 1: MDQSQKEVWDDSELRNAFETALHEFKKYHSIEAKGGVSDPDSRLDGEKLISAARTEESISKLEEGEQMINQQTETTLEGDTHIQQFADNKGLSDEKPETRAAETHQEFMEVPPPIRGLTYDETYKKLIMSWYYAGYYTGLAEVLAKSEQRKD
chain 2: MPSKRKRNPLQYQTSGSLDEETNQRSAFPQIDNNSASESLEYDIPLDGLDYLATVREEARKLVPFVAARREPETRETIPLRKLEIEAGKKSFDPFLRYLLNIIDKEGERLEQYMESSSLDASILPKNLQQWRVYIEHKAPCWAILAVVDLATVLEILESLSSWLEKDAIDLQSQWIFCFCYKLPELLNGEDISTLRSVLKSLRSTHTSFPALQMSASALQAVLVYRYGQKDLFQT
notes: S. pombe SMN (Smn1p); S. pombe Gemin2; also called spG143V; source: recombinant; yeast SMN•G2 complexes purified as previously described (24)
As to B5, in data set [1], the binding result is recorded as “binds”.

B6: Drosophila melanogaster SMN (natural protein, UniProt Q9VV74 1-226, looked up)
chain: MSDETNAAVWDDSLLVKTYDESVGLAREALARRLADSTNKREEENAAAAEEEAGEISATGGATSPEPVSFKVGDYARATYVDGVDYEGAVVSINEEKGTCVLRYLGYENEQEVLLVDLLPSWGKRVRREQFLIAKKDEDEQLSRPKASAGSHSKTPKSSRRSRISGGLVMPPMPPVPPMIVGQGDGAEQDFVAMLTAWYMSGYYTGLYQGKKEASTTSGKKKTPKK
notes: Drosophila melanogaster SMN (dmSMN); In the reconstitution the HFS tag was cut off with Ulp1 after dmGemin2 was added; also called dmSMN; source: E. coli BL21(DE3), purified (Ni-NTA after lysis in guanidine•HCl, urea wash)
In the case of B6, the binding result in data set [2] and in data set [3] was “binds” throughout.
A word on the Kd: it is the free concentration of one partner at which half of the binding sites on the other are occupied at equilibrium, for simple one-to-one binding. Low readings indicate tighter binding, high ones weaker binding. As for B7, binding in data set [4] was put at a Kd of 33.4 ± 5 µM.

B8: MBP-hsSMN^252-294(C289A, N283C) (domain or fragment, human, UniProt Q16637 252-294, looked up)
chain: DSLDDADALGSMLISWYMSGYHTGYYMGFRQCQKEGRASHSLN
notes: human SMN YG box, residues 252-294; also called hsSMN^N283C; source: E. coli BL21(DE3), purified (amylose resin); not shown: MBP, N-terminal, kept
For B8, the binding result in data set [5] was “binds”.

B9: MBP-hsSMN^252-294(C289A, Y277C) (domain or fragment, human, UniProt Q16637 252-294, looked up)
chain: DSLDDADALGSMLISWYMSGYHTGYCMGFRQNQKEGRASHSLN
notes: human SMN YG box, residues 252-294; also called hsY277C; source: E. coli BL21(DE3), purified (amylose resin); not shown: MBP, N-terminal, kept
For B9, the binding result in data set [5] is given as “binds”.

B10: MBP-hsSMN^252-294(C289A, R281C) (domain or fragment, human, UniProt Q16637 252-294, looked up)
chain: DSLDDADALGSMLISWYMSGYHTGYYMGFCQNQKEGRASHSLN
notes: human SMN YG box, residues 252-294; source: E. coli BL21(DE3), purified (amylose resin); not shown: MBP, N-terminal, kept
Take B10: in data set [5], the binding result was “binds”.

B11: MBP-hsSMN^252-294(C289A, T274C) (domain or fragment, human, UniProt Q16637 252-294, looked up)
chain: DSLDDADALGSMLISWYMSGYHCGYYMGFRQNQKEGRASHSLN
notes: human SMN YG box, residues 252-294; also called hsT274C; source: E. coli BL21(DE3), purified (amylose resin); not shown: MBP, N-terminal, kept
B11: in data set [5], the binding result is listed as “binds”.

B12: MBP-hsSMN^252-294(C289A, S262C) (domain or fragment, human, UniProt Q16637 252-294, looked up)
chain: DSLDDADALGCMLISWYMSGYHTGYYMGFRQNQKEGRASHSLN
notes: as for B10
Turning to B12, the binding result in data set [5] was “binds”.

B13: Hs^1-275-GCN4(IL) chimera•Gemin2 (complex)
chain 1: not shown
chain 2: MAWVPAESAVEELMPRLLPVEPCDLTEGFDPSVPPRTPQEYLRRVQIEAAQCPDVVVAQIDPKKLKRKQSVNISLSGCQPAPEGYSPTLQWQQQQVAQFSTVRQNVNKHRSHWKSQQLDSNVTMPKSEDEEGWKKFCLGEKLCADGAVGPATNESPGIDYVQIGFPPLLSIVSRMNQATVTSVLEYLSNWFGERDFTPELGRWLYALLACLEKPLLPEAHSLIRQLARRCSEVRLLVDSKDDERVPALNLLICLVSRYFDQRDLADEPS
As to B13, in data set [6], the “stoichiometry N” value came out at 2.

B14: MBP-spSMN YG box (112–152) A141Y, A145C (domain or fragment, Schizosaccharomyces pombe, UniProt Q09808 112-152, looked up)
chain: PPPIRGLTYDETYKKLIMSWYYAGYYTGLYEGLCKSEQRKD
notes: S. pombe SMN, residues 112-152; SMN residues fused to the penultimate Thr of E. coli MBP with a Gly-Ser linker; also called A145C mutant with an A141Y substitution; source: E. coli BL21(DE3), purified (amylose resin); not shown: MBP, N-terminal, kept
As for B14, the binding result in data set [5] is recorded as “binds”.

B15: MBP-dmSMN^186-220 (domain or fragment, Drosophila melanogaster, UniProt Q9VV74 186-220, looked up)
chain: GAEQDFVAMLTAWYMSGYYTGLYQGKKEASTTSGK
notes: The SEC-SAXS methods print 189-220 for this fusion; also called MBP-dmSMN^189–220; source: expressed from pETDuet at 37°C, purified (amylose resin, Superdex-200); not shown: MBP, N-terminal, kept
As for B15, the “stoichiometry N” value in data set [7] was 4 and 8.
